Experimental data taken from US10081661.

Experiments:
Experiment in all cases: cell_activity
[1] = test system: ZFN SBS#47898 (human albumin); conditions: paired with 47863; K562
[2] = test system: ZFN SBS#47169 (human albumin); conditions: paired with 47171; HepG2, 100 ng mRNA each
[3] = test system: ZFN SBS#47931 (human albumin); conditions: paired with 47863; K562
[4] = test system: ZFN SBS#40477 (human albumin); conditions: paired with 47192; HepG2
[5] = test system: ZFN SBS#47079 (human albumin); conditions: paired with 47863; K562
[6] = test system: ZFN SBS#47171 (human albumin); conditions: paired with 47079; K562, 75 ng mRNA
[7] = test system: ZFN SBS#47863 (human albumin); conditions: paired with 47898; K562
[8] = test system: ZFN SBS#47864 (human albumin); conditions: paired with 47931; HepG2
[9] = test system: ZFN SBS#47192 (human albumin); conditions: paired with 47079; K562

Sequence	activity [1] [% indels]	activity [2] [% indels]	activity [3] [% indels]	activity [4] [% indels]	activity [5] [% indels]	activity [6] [% indels]	activity [7] [% indels]	activity [8] [% indels]	activity [9] [% indels]
CCTATCCATTGCACTATGCTTTATTTAA (double strand) [human/rhesus albumin site]	91.9	22.2	78.9	23.7	86.8				
TTTGGGATAGTTATGAATTCAATCTTCA (double strand) [human albumin site]						79.4	91.9	21.3	77.9
